Measured values published in IntAct's records for PubMed 32296183.

B1: Catenin alpha-3 (Homo sapiens), Q9UI47-2 (parent)
chain: MSAETPITLNIDPQDLQVQTFTVEKLLEPLIIQVTTLVNCPQNPSSRKKGRSKRASVLLASVEEATWNLLDKGEKIAQEATVLKDELTASLEEVRKESEALKVSAERFTDDPCFLPKREAVVQAARALLAAVTRLLILADMIDVMCLLQHVSAFQRTFESLKNVANKSDLQKTYQKLGKELENLDYLAFKRQQDLKSPNQRDEIAGARASLKENSPLLHSICSACLEHSDVASLKASKDTVCEEIQNALNVISNASQGIQNMTTPPEPQAATLGSALDELENLIVLNPLTVTEEEIRPSLEKRLEAIISGAALLADSSCTRDLHRERIIAECNAIRQALQDLLSEYMNNAGKKERSNTLNIALDNMCKKTRDLRRQLRKAIIDHVSDSFLDTTVPLLVLIEAAKNGREKEIKEYAAIFHEHTSRLVEVANLACSMSTNEDGIKIVKIAANHLETLCPQIINAALALAARPKSQAVKNTMEMYKRTWENHIHVLTEAVDDITSIDDFLAVSGMFLFF
partner: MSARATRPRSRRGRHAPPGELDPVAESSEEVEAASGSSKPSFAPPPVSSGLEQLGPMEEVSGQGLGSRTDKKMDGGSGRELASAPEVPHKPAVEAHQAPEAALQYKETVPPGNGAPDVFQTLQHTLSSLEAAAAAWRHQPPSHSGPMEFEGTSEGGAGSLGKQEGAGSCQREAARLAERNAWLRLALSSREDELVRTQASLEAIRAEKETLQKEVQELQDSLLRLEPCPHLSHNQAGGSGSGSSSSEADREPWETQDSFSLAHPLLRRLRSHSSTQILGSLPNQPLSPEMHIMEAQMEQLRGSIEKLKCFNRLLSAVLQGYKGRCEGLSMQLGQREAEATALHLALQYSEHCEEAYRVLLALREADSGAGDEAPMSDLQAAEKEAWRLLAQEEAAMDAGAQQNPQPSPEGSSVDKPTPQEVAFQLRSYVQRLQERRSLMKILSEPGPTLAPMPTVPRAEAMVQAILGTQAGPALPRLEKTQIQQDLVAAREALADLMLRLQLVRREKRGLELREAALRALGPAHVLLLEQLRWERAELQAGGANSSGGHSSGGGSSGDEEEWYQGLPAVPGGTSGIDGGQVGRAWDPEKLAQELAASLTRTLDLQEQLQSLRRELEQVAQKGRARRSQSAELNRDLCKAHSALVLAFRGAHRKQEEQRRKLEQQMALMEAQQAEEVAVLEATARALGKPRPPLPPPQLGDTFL
B2: Very-long-chain enoyl-CoA reductase (Homo sapiens), Q9NZ01 (parent)
chain: MKHYEVEILDAKTREKLCFLDKVEPHATIAEIKNLFTKTHPQWYPARQSLRLDPKGKSLKDEDVLQKLPVGTTATLYFRDLGAQISWVTVFLTEYAGPLFIYLLFYFRVPFIYGHKYDFTSSRHTVVHLACICHSFHYIKRLLETLFVHRFSHGTMPLRNIFKNCTYYWGFAAWMAYYINHPLYTPPTYGAQQVKLALAIFVICQLGNFSIHMALRDLRPAGSKTRKIPYPTKNPFTWLFLLVSCPNYTYEVGSWIGFAIMTQCLPVALFSLVGFTQMTIWAKGKHRSYLKEFRDYPPLRMPIIPFLL
partner: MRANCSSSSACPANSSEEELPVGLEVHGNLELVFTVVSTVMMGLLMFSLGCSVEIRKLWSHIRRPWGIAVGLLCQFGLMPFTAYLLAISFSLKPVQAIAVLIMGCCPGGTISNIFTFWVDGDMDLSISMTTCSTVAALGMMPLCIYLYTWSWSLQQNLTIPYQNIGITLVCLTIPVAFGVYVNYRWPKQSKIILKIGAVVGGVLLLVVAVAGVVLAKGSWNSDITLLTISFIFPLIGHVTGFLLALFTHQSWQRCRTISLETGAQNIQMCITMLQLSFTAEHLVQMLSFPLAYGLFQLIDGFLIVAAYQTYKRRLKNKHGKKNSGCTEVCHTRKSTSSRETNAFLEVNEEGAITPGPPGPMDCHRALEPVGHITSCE
B3: Very-long-chain enoyl-CoA reductase (Homo sapiens), Q9NZ01 (parent)
chain: B2 chain
partner: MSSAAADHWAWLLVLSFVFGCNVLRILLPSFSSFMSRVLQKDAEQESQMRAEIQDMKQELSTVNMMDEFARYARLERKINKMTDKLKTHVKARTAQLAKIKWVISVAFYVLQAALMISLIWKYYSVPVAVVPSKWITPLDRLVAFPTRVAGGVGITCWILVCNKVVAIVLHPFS
B4: Catenin alpha-3 (Homo sapiens), Q9UI47-2 (parent)
chain: B1 chain
partner: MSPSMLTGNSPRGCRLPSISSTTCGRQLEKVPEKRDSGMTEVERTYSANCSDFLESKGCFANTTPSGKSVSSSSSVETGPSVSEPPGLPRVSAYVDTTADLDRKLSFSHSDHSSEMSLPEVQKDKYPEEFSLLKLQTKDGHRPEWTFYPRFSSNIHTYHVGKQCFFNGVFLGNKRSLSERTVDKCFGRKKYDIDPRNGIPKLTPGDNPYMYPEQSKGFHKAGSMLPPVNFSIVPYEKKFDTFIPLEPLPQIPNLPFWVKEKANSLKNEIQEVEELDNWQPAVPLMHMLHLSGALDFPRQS
B5: Catenin alpha-3 (Homo sapiens), Q9UI47-2 (parent)
chain: B1 chain
partner: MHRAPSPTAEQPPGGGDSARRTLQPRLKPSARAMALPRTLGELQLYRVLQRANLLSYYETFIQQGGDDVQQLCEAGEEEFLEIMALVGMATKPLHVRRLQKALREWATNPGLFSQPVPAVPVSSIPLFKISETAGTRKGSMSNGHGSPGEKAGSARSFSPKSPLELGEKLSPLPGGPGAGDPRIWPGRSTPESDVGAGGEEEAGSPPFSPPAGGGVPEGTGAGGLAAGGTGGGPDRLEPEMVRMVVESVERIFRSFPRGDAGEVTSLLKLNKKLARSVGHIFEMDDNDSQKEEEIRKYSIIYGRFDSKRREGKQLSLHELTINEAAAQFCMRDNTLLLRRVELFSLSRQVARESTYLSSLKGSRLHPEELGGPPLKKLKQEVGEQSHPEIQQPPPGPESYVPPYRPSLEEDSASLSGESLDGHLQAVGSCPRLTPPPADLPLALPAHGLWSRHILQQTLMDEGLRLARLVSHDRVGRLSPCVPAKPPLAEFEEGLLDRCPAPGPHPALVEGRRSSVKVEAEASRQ
B6: Very-long-chain enoyl-CoA reductase (Homo sapiens), Q9NZ01 (parent)
chain: B2 chain
partner: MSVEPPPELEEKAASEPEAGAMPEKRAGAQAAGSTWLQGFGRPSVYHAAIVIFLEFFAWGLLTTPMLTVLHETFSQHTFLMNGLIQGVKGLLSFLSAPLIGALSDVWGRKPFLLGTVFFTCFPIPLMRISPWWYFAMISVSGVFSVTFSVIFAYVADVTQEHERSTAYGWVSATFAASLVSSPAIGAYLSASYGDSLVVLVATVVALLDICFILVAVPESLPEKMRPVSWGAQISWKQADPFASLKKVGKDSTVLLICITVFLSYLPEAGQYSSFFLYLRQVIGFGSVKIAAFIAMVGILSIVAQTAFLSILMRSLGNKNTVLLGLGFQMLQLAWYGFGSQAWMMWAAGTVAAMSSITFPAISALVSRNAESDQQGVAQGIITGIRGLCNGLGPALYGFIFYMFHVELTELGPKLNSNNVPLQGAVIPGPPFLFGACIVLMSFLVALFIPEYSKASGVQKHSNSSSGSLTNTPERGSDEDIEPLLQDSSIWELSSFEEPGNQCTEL
B7: Golgi SNAP receptor complex member 2 (Homo sapiens), O14653 (parent)
chain: MDPLFQQTHKQVHEIQSCMGRLETADKQSVHIVENEIQASIDQIFSRLERLEILSSKEPPNKRQNARLRVDQLKYDVQHLQTALRNFQHRRHAREQQERQREELLSRTFTTNDSDTTIPMDESLQFNSSLQKVHNGMDDLILDGHNILDGLRTQRLTLKGTQKKILDIANMLGLSNTVMRLIEKRAFQDKYFMIGGMLLTCVVMFLVVQYLT
partner: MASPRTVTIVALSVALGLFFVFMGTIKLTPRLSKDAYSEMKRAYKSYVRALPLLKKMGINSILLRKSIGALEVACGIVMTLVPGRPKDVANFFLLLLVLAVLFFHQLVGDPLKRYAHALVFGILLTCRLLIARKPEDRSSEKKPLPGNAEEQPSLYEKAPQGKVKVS
B8: Very-long-chain enoyl-CoA reductase (Homo sapiens), Q9NZ01 (parent)
chain: B2 chain
partner: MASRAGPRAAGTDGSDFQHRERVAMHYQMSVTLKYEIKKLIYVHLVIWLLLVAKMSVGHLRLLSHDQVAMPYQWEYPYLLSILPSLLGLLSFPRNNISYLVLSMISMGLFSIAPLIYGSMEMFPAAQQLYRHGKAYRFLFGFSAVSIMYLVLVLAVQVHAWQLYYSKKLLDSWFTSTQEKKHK
B9: Golgi SNAP receptor complex member 2 (Homo sapiens), O14653 (parent)
chain: B7 chain
partner: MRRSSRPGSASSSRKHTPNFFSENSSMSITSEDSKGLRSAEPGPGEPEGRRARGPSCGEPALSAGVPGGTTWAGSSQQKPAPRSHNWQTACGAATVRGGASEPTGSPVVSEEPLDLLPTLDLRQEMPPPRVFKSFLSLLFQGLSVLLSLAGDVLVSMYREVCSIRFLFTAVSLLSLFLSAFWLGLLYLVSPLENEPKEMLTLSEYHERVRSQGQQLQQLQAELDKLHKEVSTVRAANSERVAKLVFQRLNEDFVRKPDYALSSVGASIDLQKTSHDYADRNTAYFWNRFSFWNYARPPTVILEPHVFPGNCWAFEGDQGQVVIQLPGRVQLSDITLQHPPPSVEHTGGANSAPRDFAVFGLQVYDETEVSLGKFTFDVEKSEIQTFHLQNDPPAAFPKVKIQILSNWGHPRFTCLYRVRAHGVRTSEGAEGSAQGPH
B10: Ceroid-lipofuscinosis neuronal protein 6 (Homo sapiens), Q9NWW5 (parent)
chain: MEATRRRQHLGATGGPGAQLGASFLQARHGSVSADEAARTAPFHLDLWFYFTLQNWVLDFGRPIAMLVFPLEWFPLNKPSVGDYFHMAYNVITPFLLLKLIERSPRTLPRSITYVSIIIFIMGASIHLVGDSVNHRLLFSGYQHHLSVRENPIIKNLKPETLIDSFELLYYYDEYLGHCMWYIPFFLILFMYFSGCFTASKAESLIPGPALLLVAPSGLYYWYLVTEGQIFILFIFTFFAMLALVLHQKRKRLFLDSNGLFLFSSFALTLLLVALWVAWLWNDPVLRKKYPGVIYVPEPWAFYTLHVSSRH
partner: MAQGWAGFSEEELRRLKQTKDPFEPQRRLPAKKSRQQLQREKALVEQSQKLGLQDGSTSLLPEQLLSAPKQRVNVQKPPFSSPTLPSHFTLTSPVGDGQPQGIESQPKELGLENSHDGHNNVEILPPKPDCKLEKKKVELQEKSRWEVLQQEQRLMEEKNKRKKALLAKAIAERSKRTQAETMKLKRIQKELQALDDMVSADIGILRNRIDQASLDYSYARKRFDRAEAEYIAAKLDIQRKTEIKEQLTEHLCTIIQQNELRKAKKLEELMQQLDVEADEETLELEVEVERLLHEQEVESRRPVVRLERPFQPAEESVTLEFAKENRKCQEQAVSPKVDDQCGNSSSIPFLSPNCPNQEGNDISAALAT

Variants of: B1
Details: with usbp1_human USHBP1, Q8N6Y0

effect of a mutation on the interaction	Variant
disrupting interaction strength	V94D

Variants of: B2
Details: with soat_human SLC10A6, Q3KNW5

effect of a mutation on the interaction	Variant
with no effect	P182L

Variants of: B3
Details: with get1_human GET1, O00258

effect of a mutation on the interaction	Variant
disrupting interaction strength	P182L

Variants of: B4
Details: with spas1_human SPATS1, Q496A3

effect of a mutation on the interaction	Variant
disrupting interaction strength	V94D

Variants of: B5
Details: with nab2_human NAB2, Q15742

effect of a mutation on the interaction	Variant
disrupting interaction strength	V94D

Variants of: B6
Details: with mf14b_human MFSD14B

effect of a mutation on the interaction	Variant
disrupting interaction strength	P182L

Variants of: B7
Details: with nacho_human TMEM35A

effect of a mutation on the interaction	Variant
with no effect	G144W

Variants of: B8
Details: with jagn1_human JAGN1, Q8N5M9

effect of a mutation on the interaction	Variant
with no effect	P182L

Variants of: B9
Details: with spag4_human SPAG4, Q9NPE6

effect of a mutation on the interaction	Variant
with no effect	G144W

Variants of: B10
Details: with gorab_human GORAB

effect of a mutation on the interaction	Variant
with no effect	L47F
with no effect	G123D
